The source of these data is patent US6071709A, “Nerve growth factor/receptor complex” (The United States of America as represented by the …, priority 1992, dated 2000).

One test deals with T1, gp140^prototrk (Rattus norvegicus, UniProt P35739).
T1 construct: tyrosine phosphorylation in response to NGF addition to PC12 cells; endogenous in cells; host or cells: PC12 cells
The settings on record: PC12 cells, after NGF administration (Kaplan et al., 1991); cited from earlier work.

For the next test, the system named is p140^prototrk. Briefly: Affinity crosslinking of 125I-NGF to gp140trk with HSAB and immunoprecipitation. Type of test: binding, rat. The settings on record: 0.5 nM 125I-NGF, 2 hr at 4° C., PC12 and rtrk-3T3 cells. The source says: FIG. 5 depicts the affinity crosslinking of NGF to gp140trk on PC12 cells and rtrk 3T3 cells. trk receptors were labeled by cross-linking of ^125 I-NGF to cultured cells using HSAB. The cell lines analyzed were PC12 cells (lanes 1-4), rtrk 3T3 cells (lanes 5-9), NIH-3T3 cells (lanes 10-11) and A875 human […] cells (lanes 13-15). Lysates from cells were immunoprecipitated with anti-NGF (lanes 1, 5, 9-14), gp140trk antibody 7-4 which is another trk antibody generated in bacteria against the gp70trk oncogene (7-4), (Martin-Zanca et al., (1989)) (lanes 2 and 6), or gp140trk antibody 43-4 in the absence (lanes […] and 15) or presence (lanes 4 and 8) of 10 μg/ml competing trk peptide. Crosslinking was performed in the presence of excess unlabeled NGF ([…]) in lanes 9, 11, and 14. The antibody 7-4 immunoprecipitates 3-5 fold less gp140 trk than does antibody 43-4. […]
^125 I-NGF was prepared by lactoperoxidase treatment to specific activities of 2500-3500 cpm/fmole. […] After washing in 50 mM lysine in phosphate buffered saline, cells were lysed in buffer containing 1% NP40 and the lysates immunoprecipitated and analyzed on 7.5% SDS-PAGE as described (Kaplan et al., (1990)).
To determine if NGF was capable of binding to p140^prototrk, several cell lines were analyzed for the ability of trk-specific antisera to precipitate receptor-ligand complexes in affinity crosslinking experiments (FIG. 5). […]

Chain of p140^prototrk (P35739 148-395 limits assumed): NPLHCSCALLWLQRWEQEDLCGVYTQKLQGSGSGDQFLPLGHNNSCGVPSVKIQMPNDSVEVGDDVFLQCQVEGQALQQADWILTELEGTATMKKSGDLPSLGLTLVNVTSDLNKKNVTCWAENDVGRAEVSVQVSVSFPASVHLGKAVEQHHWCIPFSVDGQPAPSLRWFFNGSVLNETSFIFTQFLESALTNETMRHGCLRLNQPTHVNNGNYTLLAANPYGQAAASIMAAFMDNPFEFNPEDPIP
T1 sequence (P35739 33-799): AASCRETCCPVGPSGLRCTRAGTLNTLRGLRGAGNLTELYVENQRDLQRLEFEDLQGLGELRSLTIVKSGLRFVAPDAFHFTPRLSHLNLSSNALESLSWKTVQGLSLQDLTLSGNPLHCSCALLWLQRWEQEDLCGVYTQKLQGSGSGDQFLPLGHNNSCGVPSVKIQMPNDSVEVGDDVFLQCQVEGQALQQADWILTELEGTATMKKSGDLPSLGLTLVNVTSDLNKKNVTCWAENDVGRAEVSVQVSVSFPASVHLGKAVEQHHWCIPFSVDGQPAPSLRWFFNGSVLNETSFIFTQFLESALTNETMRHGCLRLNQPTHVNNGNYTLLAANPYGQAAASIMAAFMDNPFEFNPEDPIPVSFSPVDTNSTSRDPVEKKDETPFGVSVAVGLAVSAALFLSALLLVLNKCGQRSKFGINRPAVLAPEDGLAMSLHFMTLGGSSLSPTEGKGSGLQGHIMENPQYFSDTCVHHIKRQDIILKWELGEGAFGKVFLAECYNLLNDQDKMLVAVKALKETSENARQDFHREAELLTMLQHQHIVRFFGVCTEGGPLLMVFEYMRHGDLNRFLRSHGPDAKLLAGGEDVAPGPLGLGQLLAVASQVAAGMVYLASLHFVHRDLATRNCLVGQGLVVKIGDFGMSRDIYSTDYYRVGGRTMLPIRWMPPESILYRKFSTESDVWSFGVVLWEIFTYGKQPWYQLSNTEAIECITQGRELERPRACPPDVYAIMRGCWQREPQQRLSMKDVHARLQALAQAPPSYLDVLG

For “NGF: neurotrophic polypeptide factor, nerve growth factor; ligand of trk proto-oncogene receptor”, the “time to appearance of trk tyrosine phosphorylation” value with gp140^prototrk was 1 min. The “binding to p140^prototrk (160 kDa crosslinked species)” value with p140^prototrk is recorded as “binds”.
